Laboratory results: publication PMC10631208

B1: SPDGF (Apt35-FAM/cDNA12-BHQ1/cDNADCV) (mixed)
DNA 1: AAGGCTACGGCACGTAGAGCATCACCATGATCCTGTGTGGTCTATGTCGTCGTTCG
DNA 2: TGCCGTAGCCTT
DNA 3: AAGTATTACCAGAAACGAACGACGACATAGACCACA
B2: mSPDGF (mApt35-FAM/cDNA12-BHQ1/cDNADCV) (mixed)
DNA 1: AAGGCTACGGCACGATCTCGTAGTGGTCTGACTGCTGTGGTCTATGTCGTCGTTCG
DNA 2: TGCCGTAGCCTT
DNA 3: B1 DNA 3

What was measured:
PDGF-BB [1] = molecular target: T1, PDGF-BB (human, UniProt P01127 82-190); test: structure-switching fluorescence
T1 sequence (P01127 82-190): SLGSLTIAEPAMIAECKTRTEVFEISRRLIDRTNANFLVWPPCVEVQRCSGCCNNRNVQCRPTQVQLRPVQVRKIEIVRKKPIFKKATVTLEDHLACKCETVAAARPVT

PDGF-BB [2] = molecular target: T1, PDGF-BB; test: structure-switching fluorescence; remark: listed apart in the source

Binder | binding signal (PDGF-BB [1]) | binding result (PDGF-BB [2])
B1 | ~6.9 fold fluorescence increase | –
B2 | – | no binding
